Assay: label from the status in PepcDB records

MLKIRCQACSTILEASYKISYNAQDMKYKNLPVYEQKDRILEMLEHNQVIVVESPTGSGKTTQLPVILHEAGYSRSGMIGVTQPRRIAALSVSEFISKQLKEPMPGLVGYKMRFEDKTSNDTKIKIMTDGILLQELKLDPWLSKYSVILVDEAHERSLNIDFILGLLKRIITERKDFKVIISSATINTDLFSMYFDGCPVIKIDAITYPVTLIFDPPAVKASTDTQEAETALMDKIASIVGRILSEGRSGAILVFLPGERAIKDCIERLSKEPWYRKLFILPLYGRLSKEEQERVFKSPPFGKKKIVISTNIAETSITINDIAAVIDSGLAKLNFYNPFTFTSSLDETLISRASCNQRRGRAGRTQEGVCYRLYTRKDFETRQLYTLEEIYRTDLSEVVMRMAELGILDFENFDFISPPGKKGIIGAIDTLNMLDALESDRSLSSIGKMMCLFPLAPRQSRIIVEAITRYPDLVEEVLIAAAFLSARSPVIFPEGEEIEARKAHALFDEPLGDFASFLKVFRMYSQALDKERFCKIHYLDDRVMAEIANIKEQLELIVSDMGVPILSGGKMEHYLTAIAKGMIQFVCSAQGRDSYRSLTTEKIFIHPGSCMYKEKEQFIVAGEIVRTSRMYAMSVSPLSKKIIEEVAPALLERKDKRAKKEKDEHRADQKEEKKKPEEESVLIEGTRYLIKKIKGKKHLILPWKEFKLTAEAVFKKYSEENQNGALEQLKGLRGKIEINKSELLSGEKMDLILNVVNNFNIEQIEKTEDEKHFDRNKNYFIEEDLEALVNSLNLLFRTTIAKKTTKQLGFITLFCDGTGHFWFKTSRGFHTALHESLVSLQSLIDLAGENFNEDQKIIVRTIYGKMNKMI
protein production: failed

MTDEKKVPSKPARPARKPRADKPADAKPAAVPKVAAPAVVEGSSTNAAAVKKSLRDGGMTALPSEILFAVGSIPLVVDKDALSTLAAALVASDDPSTWFVANRELIRAVVFVPQQNNVLRATPLLSVRPVASLSSVHNWQVRNHLSGLHVVVGGTGAGKSKWLNAQTPDVTIRWGEPGETFDMEESSIAVADLTEMLAVALLLATADYRVVIDSFRNLVFGITGAAGPGGVSVALYAALTSLNNICAELGVLLVAAINPMSSDDKVSLVYNNIAASVAGMTVVNNAAVVSQTIRSGTGRIFSGEPAPRNDSPVEYHEPRHTQLDEPSGPSARIRLESNNIDPDDENDNRPRRGARISL
protein production: not failed

MEEITDGVNNMNLATDSQKKNRIQVSNTKKPLFFYVNLAKRYMQQYNDVELSALGMAIATVVTVTEILKNNGFAVEKKIMTSTVDIKDDARGRPVQKAKIEITLVKSEKFDELMAAANEEKEDAEAQVQN
protein production: not failed

MNQQDIKQKVLDVLDHHKVGSLATVAAGAPHSRYMTFFHDGLTIYTPTSKETHKAEEIENNPNVHILLGYDCEGFGDAYVEVAGKAKINNSAELKDKIWSSKLERWFDGKDDPNLVILEIEPEDIRLMNAGEKTPVSLEL
protein production: not failed

MQQRRPVRRALLSVSDKAGIVEFAQALSARGVELLSTGGTARLLAEKGLPVTEVSDYTGFPEMMDGRVKTLHPKVHGGILGRRGQDDAIMEEHQIQPIDMVVVNLYPFAQTVAREGCSLEDAVENIDIGGPTMVRSAAKNHKDVAIVVKSSDYDAIIKEMDDNEGSLTLATRFDLAIKAFEHTAAYDSMIANYFGSMVPAYHGESKEAAGRFPRTLNLNFIKKLDMRYGENSHQQAAFYIEENVKEASVATATQVQGKALSYNNIADTDAALECVKEFAEPACVIVKHANPCGVAIGNSILDAYDRAYKTDPTSAFGGIIAFNRELDAETAQAIISRQFVEVIIAPSASEEALKITAAKQNVRVLTCGQWGERVPGLDFKRVNGGLLVQDRDLGMVGAEELRVVTKRQPSEQELRDALFCWKVAKFVKSNAIVYAKNNMTIGIGAGQMSRVYSAKIAGIKAADEGLEVKGSSMASDAFFPFRDGIDAAAAAGVTCVIQPGGSIRDDEVIAAADEHGIAMLFTDMRHFRH
protein production: not failed

MDTEMLIDKYQLNDSEAAVLRFMDKNRDCLKSLGIREVAKASYVSTTAIINMAKKIGYSGYSELVFAYGNKHSSISFPENFSNEEKDEFIRLLSRYREKRIMVLGSGFSQNIANHFSEMLNLYGFRATANSHLEFLRENVEKDVLIFIVSNSGDTLRLAELVKLAKNHHIDLIAFVGEKKSKIGQLATLTISTETYNPQVVSEYQPNLFFGTALNQFELLLSEALKSIFI
protein production: not failed

WYENYRWFFTSEGFLVIGGRTAEMNEEIVAKHLESLDLFFHTQTPGAPAVILKRGQEAGEESIREAAEFAATYSALWKEGKHAGEVYYVLPEQVSKSAKAGEYLPK
protein production: failed

MTQLPPAIFLMGPTAAGKTDLAIELTKVLPCELISVDSALVYRGMDIGTAKPSRELLAQFPHRLIDILDPAESYSAADFRTDALAAMADITARGKIPLLVGGTMLYYKALLEGLADMPAADPQVRAELEEEAARLGWQALHDQLAAVDPESAARIHPNDPQRLTRALEVYRVSGLTMTAHRQRQLAQSTEAGASGRSQLPYTVANLAIAPANRQVLHQRIAQRFTQMLEQGFIDEVVALRSRSDLHAGLPSIRAVGYRQVWDHLDGKLTSAEMQERGIIATRQLAKRQFTWLRSWADLQWLDSLDCDNLPRALKYLGTISILSLEHHHHHH
protein production: failed

MKMHRDSISLNSYEEMAEYYFSYVDQKPFNAYYERPATLSLLPDVAGKRVLDAGCAAGWYTQWLLDKGAAVTAVDFSAGMIEMTRKRVGERAEIIRADLNEPLDFMAKESCDIVLSSLALHYLKDWTLVMSEFHRILAKGGLLIFSVHHPFMDFTVFQRDNYFLTELLDDEWETQKGKVKVQFYRRPLSQILSAVLEAGFLLEKVLEPMPTEEFKSAQPDAYRRLTYKPQFLFLRARKP
protein production: failed

MPAPRFAQASEVPGLAARRIAADILDGVLQKRRMLDDQLEGPAAHPGLKTLSDRDRALMRRLVATILRRLGTLEGLLAKLLDRGVPTDAPRAKSALLIGAAQILWMDVPDHAAVDLSVRLVQSDRRAAKYAGLVNAVLRRCAREGQPLVEELAAGTPDVPQWLLARWSEHYGAETTRAIAHAISHEPSLDLTVKSDPAHWAARLHGEVLPTGTVRTLLQGSVRMLPGFDEGQWWVQDAAAALPARLFGDIAGKSVADLCAAPGGKTAQLAAAGARVTAIDRSPARVARLRENLARLSLKVETGVADAAEWRGDATAEFDAVLIDAPCASTGTIRRHPDVAWLKQESDIGALAAVQNRLLKKAASLLRPGGTLVYCTCSLEPEEGEQAIAALLDAESSMRRQPIDPAEVAGLAEIVTTDGALRTLPCHLPHSDPRLAGLDGFYAARLVKSL
protein production: failed

WPGRDRLRHLEPLRSITQLAALLANELEASVSPDTPLLLAGHSMGAQVAFETCRLLEQRGLAPQGLIISGCHAPHLHSERQLSHRDDADFIAELIDIGGCSPELRENQELMSLFLPLLRADFYATESYHYDSPDVCPPLRTPALLLCGSHDREASWQQVDAWRQWLSHVTGPVVIDGDHFYPIQQARSFFTQIVRHFP
protein production: failed

MFMKKWIGIDLGTTNTVASYFDVSSKIILNERGERITPSIVSFSDKDVLVGSAAKNQILVNPQKTFYNFKTNIGSNNFYKVDGEFYKAEYISAHLLASVKRNAEKFLDEEIENAVITVPAYFSEIQRRCVVEAANFAGLNCKAILNEPTAAAIAYAFERQIDGIFLIYDLGGGTFDVTLMEKQGDTYTVLSVKGQSRLGGNDFNKIIEKYVLDSFKNKYPDFNLEDIFLLEQLRERIEEGKKNLSVMEEVDITLLFLDGKHLNYNLKRDEFNSMISEYIDKTIQLSMECIADSGVDISSVSKIILSGGSTRIPLIEKVLKESFPSATILDALNQDEVVAIGAGIHAFSLSRNDSVIKFKDVTPYSLGLEIKDNEFFTLIKRNTALPISRSKLFTTTNDYQDEIEIHILQGEYKKASLNYSIGRFSFGNIQKALKGIPKIEVLFTLNESGILSVNAKDLETNSSNFIEIKITSSSDNVAKESLSNTFTSIID
protein production: failed

MSPFDTPRRLVAEALGTALLLAVVVGSGIMGERLSDGNIAIALLGNTLATGAALVVLIWVFGPISGAHFNPAVTLVAALRRELPLTLALAYPLAQILGGIAGVWTAHAMFGEPILQVSTKLRSGGDQAFAEVVATFGLLATILGVSRFRPESTPMAVGLYITAAYWFTASTSFANPAVTVARSLSDSFAGIAPASAPAFILAQLVGALSAAALFGWLLKTDTSR
protein production: failed

MNDTLLTTYTLAEGLHWLDLIGVLAFAMSGALLGVRKRFDLFGVLVLGAVTAVGGGAIRDSLTGQTPPLFLRDETYLWTALLGALLAFAFGERLARFERTLSLFDSAGLALFATSGALGAIKIGLGPLGVVFAGMLSGVGGGIIRDLIANEVPEVMYRRDQLYATAAAAGAGAVWLLAPHFTPFQAQAGGALLVLFLRWVSRRQWVRLPVRRLPE
protein production: failed

MNLPKKVRLVEVGPRDGLQNEKQPIEVADKIRLVDDLSAAGLDYIEVGSFVSPKWVPQMAGSAEVFAGIRQRPGVTYAALAPNLKGFEAALESGVKEVAVFAAASEAFSQRNINCSIKDSLERFVPVLEAARQHQVRVRGYISCVLGCPYDGDVDPRQVAWVARELQQMGCYEVSLGDTIGVGTAGATRRLIEAVASEVPRERLAGHFHDTYGQALANIYASLLEGIAVFDSSVAGLGGCPYAKGATGNVASEDVLYLLNGLEIHTGVDMHALVDAGQRICAVLGKSNGSRAAKALLAKA
protein production: not failed

NPNPISIPIDLSQAGSVVEKEVKIEESWSYHLILQFAVHDRKEDGGLDGKRVWKFLGFNSYDPRDGKQVGYVDYRLAKSELGDLIDETYDCDGTVVPIKITIHQINQDNTKKLIADNLYMTKGNGSGAYTRDITTISLDKGKYIFRIENIEAFSEMIGRKVDFTIYINKRDK
protein production: not failed

MKLSINDLNVFVNTPKDIAKLCEDLSRLGLEVESCIPCIAPKNVVVGKILEKAPHKNAEKLSVCQVDVGKEVLQIVCGAKNVAPNQFVPVALNGALIGSTTIAKTELRGVESHGMICSSIELGFPKINDGILELDESVGELVLGKELNEYAPFNTHVLEISLTPNRGDCLSVLGIAREISAFYHTPLKPIKALNFTPKSGLITLSAGENIESHLAYYLICNHSLKTPLNIKLSLAHNNALSENDLNNFIEFSTHFSGVIMNAYSLNTTPMDLSVKNDENNLESVYINHQKRSTIAIKHQVQKDLSECLLLEASYTDPISLSLKLHALKDKTLQKDNALIYRSARGSNPNLSDGLNFLSAHLKATILESKQTEHSLKDRTLTFQLEDITEILGLAVEKEKIQGILKNLGFKVSVKEPNSKPQILEVIAPNFRHDIKTIQDIAEEILRFVGIDNLVSKPLHCVSSKNSNPNYDTHRFFENLKHKALACGFKEVIHYVFYSKEKQQKLGFEVLEDPLELQNPITTELNTLRTSLVCGLLDASLRNKNLGFKSIALYEKGSVYNSKREEIQKLGFLISGLQKKESYPDTKGKAWDFYSFAECVSKVIGDFSLEKLTTQTPINHPYQSAKIIQNHEIIGVIAKIHPKVIQELDLFESYYAEIDAFKLKRPAMLLKPFSIYPSSVRDLTLIIDENTAFSGIKKALKDAQIPNLSEILPLDIFKESNNSIALSVRCVIHSLEKTLNDEEVNSAVQKALEILEKEFNARLKG
protein production: failed

MDSGPLWDANPTPRGTLSAPNATTPWLGRDEELAKVEIGVLATVLVLATGGNLAVLLTLGQLGRKRSRMHLFVLHLALTDLAVALFQVLPQLLWDITYRFQGPDLLCRAVKYLQVLSMFASTYMLLAMTLDRYLAVCHPLRSLQQPGQSTYLLIAAPWLLAAIFSLPQVFIFSLREVIQGSGVLDCWADFGFPWGPRAYLTWTTLAIFVLPVTMLTACYSLICHEICKNLKVKTQAWRVGGGGWRTWDRPSPSTLAATTRGLPSRVSSINTISRAKIRTVKMTFVIVLAYIACWAPFFSVQMWSVWDKNAPDEDSTNVAFTISMLLGNLNSCCNPWIYMGFNSHLLPRPLRHLACCGGPQPRMRRRLSDGSLSSRHTTLLTRSSCPATLSLSLSLTLSGRPRPEESPRDLELADGEGTAETIIF
protein production: failed
